Laboratory results as given in patent US20080200393A1, “Method and Composition For Treating Angiogenesis and For Preventing Cancer Progression and Metastasis Comprising a Prostate Secretory Protein (Psp94) Family Member” (Ambrillia Biopharma Inc., priority 2004, published 2008).
Where no end group is shown, it is not given here.

Experiments:
PDGF receptor (PDGFR) = molecular target: T1, PDGF receptor (PDGFR) (Homo sapiens, UniProt P09619); assay: PDGF-induced PDGFR phosphorylation in PASMC; format: cell-based
T1 construct: the PDGF receptor (PDGFR) in PASMC (pulmonary aortic smooth muscle cells); host or cells: PASMC (pulmonary aortic smooth muscle cells)
T1 sequence (P09619 33-1106): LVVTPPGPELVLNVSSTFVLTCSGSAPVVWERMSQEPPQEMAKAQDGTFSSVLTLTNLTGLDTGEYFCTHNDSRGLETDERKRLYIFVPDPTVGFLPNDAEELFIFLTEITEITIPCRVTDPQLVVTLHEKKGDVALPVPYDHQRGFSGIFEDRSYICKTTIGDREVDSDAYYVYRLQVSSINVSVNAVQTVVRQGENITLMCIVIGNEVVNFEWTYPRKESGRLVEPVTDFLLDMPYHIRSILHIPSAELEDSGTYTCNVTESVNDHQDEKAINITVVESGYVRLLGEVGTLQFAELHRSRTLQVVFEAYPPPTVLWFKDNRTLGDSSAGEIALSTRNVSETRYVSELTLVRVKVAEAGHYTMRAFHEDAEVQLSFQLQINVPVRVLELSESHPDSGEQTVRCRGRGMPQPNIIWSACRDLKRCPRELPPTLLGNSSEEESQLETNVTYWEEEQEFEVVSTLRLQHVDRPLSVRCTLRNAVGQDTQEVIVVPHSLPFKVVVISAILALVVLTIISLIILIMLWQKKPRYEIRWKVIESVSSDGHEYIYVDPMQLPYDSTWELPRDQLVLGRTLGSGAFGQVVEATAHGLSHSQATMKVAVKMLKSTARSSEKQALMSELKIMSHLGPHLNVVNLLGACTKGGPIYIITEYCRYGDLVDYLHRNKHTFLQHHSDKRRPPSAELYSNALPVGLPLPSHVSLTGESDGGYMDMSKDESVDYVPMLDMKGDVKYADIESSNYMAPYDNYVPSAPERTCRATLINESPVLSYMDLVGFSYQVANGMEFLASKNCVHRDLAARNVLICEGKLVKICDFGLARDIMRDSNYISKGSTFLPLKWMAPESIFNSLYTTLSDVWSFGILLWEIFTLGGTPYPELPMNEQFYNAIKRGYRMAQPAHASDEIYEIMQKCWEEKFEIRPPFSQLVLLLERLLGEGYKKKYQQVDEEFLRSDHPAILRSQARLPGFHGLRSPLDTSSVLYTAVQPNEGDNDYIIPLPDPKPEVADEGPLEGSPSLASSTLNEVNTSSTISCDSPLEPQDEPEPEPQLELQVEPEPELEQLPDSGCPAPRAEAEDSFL
Procedure: Cell culture. Human umbilical vein endothelial cells (HUVEC) and pulmonary aortic smooth muscle cells (PASMC) were obtained from Clonetics and maintained in endothelial cell basal medium-2 (EBM-2; Clonetics) and smooth muscle medium-2 (SmGM-2; Clonetics), respectively. Cells were cultured at 37° C. under a humidified atmosphere containing 5% CO2. For experimental purposes, cells were plated in 8 100-mm plastic dishes at 5,000 cells/cm^2 and were grown to confluence before overnight serum starvation. Cells were treated with vehicle or with a PCK3145 derivative diluted in 0.1 N NaOH, and stimulated with 50-100 ng/ml VEGF or PDGF, with 10 ng/ml of bFGF (basic fibroblast growth factor) or with 1 μM S1P (sphingosine-1-phosphate).
Immunoprecipitation and immunoblotting procedures. After treatment, cells were washed once with phosphate-buffered saline (PBS) containing 1 mM sodium orthovanadate and were incubated in the same medium for 1 h at 4° C. […] The cells were then scraped from the culture dishes and the resulting lysates were clarified by centrifugation at 10,000 g for 10 min; Protein concentrations were determined using the micro bicinchoninic acid method (Pierce). […] The immunoreactive bands were quantified by scanning densitometry (Molecular Dynamics). […]

HUVEC = HUVEC migration assay (modified Boyden chambers, gelatin-coated filters); format: cell-based, Human
Procedure: Migration Assays. Transwells filters (8-μm pore size; Costar, Cambridge, Mass.) were pre-coated with 0.5% gelatin/PBS for 24 h at 4° C. The transwells were then washed with PBS and assembled in 24-well plates. The upper chamber of each transwell was filled with 100 μl of HUVEC (1×10^6 cells/ml) and cells were allowed to adhere for 1 h. Cells were then treated for 2 h by adding 100 μl of 2-fold concentrated drug solution prepared in serum-free medium into the upper chamber and 600 μl of the drug solution into the lower chamber. Migration was initiated by adding VEGF (10 ng/ml), or S1P (1 μM) to the lower chamber. The plate was placed at 37° C. in 5% CO2/95% air for 4 h. Cells that had migrated to the lower surface of the filters were fixed with 10% formalin phosphate and stained with 0.1% Crystal Violet/20% (v/v) methanol. The migration was quantified using computer-assisted imaging and data are expressed as the average density of migrated cells per four fields (magnification×50).
Cells were plated onto gelatin-coated filters inserted in modified Boyden chemotactic chambers. The effect of PCK3145 on basal migration and on VEGF-induced migration was monitored by the number of cells that had migrated comparatively to untreated control cells. HUVEC were dislodged from the flasks by trypsinization, washed and resuspended in serum-free media. Cells were placed onto gelatin-coated filters inserted in chambers and incubated at 37° C., 5% CO2 for 30 min to allow adequate anchoring to the filters. The monolayers were then exposed to serum-free media containing PCK3145 (300 μg/ml) added within the upper and lower compartment of the chambers. After 2 h, VEGF (50 ng/ml) was added in the lower chamber as a chemoattractant. Cell migration was allowed to proceed for another 3 h. Filters were then fixed, stained, and the migrated cells quantified by microscopy as described in the Methods section. […] The effect of. PCK on S1P-induced HUVEC migration was also measured, but no inhibition was observed (not shown) in this particular assay.

In the case of “EWQTDNCETCTCYET (cysteine pairing not given here) [PCK3145 derivative, PCK3145 derivative with acetylaminomethyl groups on the three cysteines]”, the “PDGFR phosphorylation induced by PDGF” value (PDGF receptor (PDGFR)) is reported as “inhibition” and the “S1P-induced HUVEC migration” value (HUVEC) is reported as “no inhibition”.
